Measurements taken from patent US20160264664A1.
Values joined by “and” are separate entries in the source; they are usually repeats but may differ in a detail not shown here. Identical values can stand only once.

How the values were obtained:
mouse P2X7 (mouse) [1] = biological target: T1, mouse P2X7 (mouse) (UniProt Q9Z1M0); test: cell-based or functional assay
T1 sequence: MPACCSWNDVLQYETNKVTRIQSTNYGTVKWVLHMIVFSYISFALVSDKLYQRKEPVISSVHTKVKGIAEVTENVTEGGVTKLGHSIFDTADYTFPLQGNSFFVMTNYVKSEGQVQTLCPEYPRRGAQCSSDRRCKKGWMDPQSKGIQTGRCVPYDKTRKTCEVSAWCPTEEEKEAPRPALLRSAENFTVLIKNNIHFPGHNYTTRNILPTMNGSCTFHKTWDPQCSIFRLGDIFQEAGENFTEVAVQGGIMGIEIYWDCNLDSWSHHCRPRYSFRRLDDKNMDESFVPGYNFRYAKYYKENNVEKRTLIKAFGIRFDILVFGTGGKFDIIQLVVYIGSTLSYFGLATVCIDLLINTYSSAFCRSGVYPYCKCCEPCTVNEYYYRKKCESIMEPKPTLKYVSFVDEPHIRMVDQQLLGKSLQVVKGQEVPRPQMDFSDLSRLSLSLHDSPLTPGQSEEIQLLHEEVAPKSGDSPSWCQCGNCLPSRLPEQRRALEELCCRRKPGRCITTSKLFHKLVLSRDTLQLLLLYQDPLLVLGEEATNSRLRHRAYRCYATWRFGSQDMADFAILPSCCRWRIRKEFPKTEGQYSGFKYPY

mouse P2X7 (mouse) [2] = biological target: T1, mouse P2X7 (mouse); test: flow cytometry, purified Nanobody titrated on mP2X7-CHO cells
[3] = biological target: human chemokine receptor CXCR4 (human) (UniProt P61073); test: ELISA, periplasmic extract on CXCR4 membrane vesicles, anti-Myc detection
[4] = biological target: human chemokine receptor CXCR4 (human) (UniProt P61073); test: flow cytometry, stable CXCR4 CAKI clone vs CAKI WT cells
[5] = biological target: human chemokine receptor CXCR4 (human) (UniProt P61073); test: flow cytometry, pVAX1-hCXCR4 transfected HEK293 vs non-transfected HEK293 cells
[6] = biological target: human chemokine receptor CXCR4 (human) (UniProt P61073); test: flow cytometry, 12G5 then PE goat anti-mouse IgG, on the stable CAKI/CXCR4 clone; the control panel CAKI WT prints MCF:1089
[7] = biological target: human chemokine receptor CXCR4 (human) (UniProt P61073); test: flow cytometry, 12G5 then PE goat anti-mouse IgG, on HEK293 cells transiently transfected with pVAX1-CXCR4; the control panel HEK293 WT prints MCF:3918

Chain of human chemokine receptor CXCR4 (human) (P61073 whole entry): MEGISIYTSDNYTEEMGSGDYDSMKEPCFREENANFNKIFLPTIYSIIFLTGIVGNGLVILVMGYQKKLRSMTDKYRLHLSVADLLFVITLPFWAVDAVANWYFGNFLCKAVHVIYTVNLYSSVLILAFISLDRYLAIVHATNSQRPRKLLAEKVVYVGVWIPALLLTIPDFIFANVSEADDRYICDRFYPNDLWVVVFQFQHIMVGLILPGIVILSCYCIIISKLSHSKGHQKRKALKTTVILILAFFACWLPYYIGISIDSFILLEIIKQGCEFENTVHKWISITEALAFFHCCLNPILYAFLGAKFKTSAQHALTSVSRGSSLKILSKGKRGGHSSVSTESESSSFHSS

| Substance | percentage of cells remaining CD62L positive after ATP or NAD (Yac-1 cells, control) (mouse P2X7 (mouse) [1]) | maximum MCF value (mouse P2X7 (mouse) [2]) | ELISA signal on hCXCR4 membrane vesicles over control membrane vesicles [3] | fluorescence shift over non-transfected camelid cells [4] | fluorescence intensity shift of transfected over non-transfected cells [5] | MCF [6] | MCF [7] |
| --- | --- | --- | --- | --- | --- | --- | --- |
| irrelevant control Nanobody (VHH) | 2% and 20% | 314 to 355 MCF | 1.1 |  |  |  |  |
| Human CXCR4 specific monoclonal antibody 12G5 (R&D Systems MAB170) |  |  |  | 114 fold | 38 fold | 125000 | 152000 |
